The values that follow come from patent US11802878B2, “Protein sequencing method and reagents” (The Governing Council of the University of Toronto, priority 2009, dated 2023).

Assay [1] relates to immobilized biotinylated peptide, N-terminal amino acid D (X-SDGMFTAGSLIGK(biotin)). The assay can be described thus: Phage ELISA, binding to immobilized peptide, N-terminal D. On the procedure:
(§1) Given the discovery that the specificity pocket library was functionally robust, selections against synthetic peptide ligands were carried out using this library. The specificity pocket library was selected against 20 biotinylated peptides, each with a different N-terminal residue atop a common leader sequence (X-SDGMFTAGSLIGK(biotin)) (SEQ ID NO: 4). The peptides were immobilized individually to the bottom wells of a microtiter plate. […] Consequently, ClpS mutant variants that prefer other residues in addition to the ligand ‘bait’ would bind those competing peptides in solution and simply be washed away. Only selective variants that bound to the immobilized target(s) were amplified during each subsequent round of selection.
(§2) To evaluate the specificity and selectivity of individual clones, both wild-type ClpS and the selected variants' binding to each of the biotinylated peptides independently were tested. The same approach was also used to monitor the progress of the selections and to prioritize particular pools of phage for further investigation.
(§3) Promising single clones were picked from the selection pools and their specificity was evaluated using the same panel of biotinylated peptides and various amounts of phage supernatant. […] Accordingly, Variant 1 represents a selective N-terminal amino acid capture probe for tryptophan useful for the sequencing methods described herein. Variant 1 also represents a useful scaffold for performing further generation and selection of variants with desirable properties for use as additional N-terminal amino acid capture probes.
(§4) The selection and ELISA protocols are very similar. Briefly, each well of a 96-well Maxisorp plate was coated overnight at 4° C. with 100 μl of 10 μg/ml neutravidin in PBS, or 1:500 dilution of anti-FLAG antibody. […]
(§5) For the ELISA readouts, 100 μl of pH adjusted phage supernatant or polyethylene glycol (PEG) precipitated concentrated phage was added to appropriate wells and allowed to bind for 1 hour at 4° C. […] The reaction was stopped by addition of 90 μl of 1M H3PO4 and the absorbance at A450 nm was read.

Assay [2] concerns immobilized biotinylated peptide, N-terminal amino acid G (X-SDGMFTAGSLIGK(biotin)). The assay can be described thus: Phage ELISA, binding to immobilized peptide, N-terminal G. On the procedure: as §1, §2, §3, §4, §5
Background: ELISA stands for enzyme-linked immunosorbent assay.

In assay [3] the test system is immobilized biotinylated peptide, N-terminal amino acid A (X-SDGMFTAGSLIGK(biotin)). Description: Phage ELISA, binding to immobilized peptide, N-terminal A. On the procedure: as §1, §2, §3, §4, §5
The test system of assay [4] is immobilized biotinylated peptide, N-terminal amino acid S (X-SDGMFTAGSLIGK(biotin)). The assay can be described thus: Phage ELISA, binding to immobilized peptide, N-terminal S. On the procedure: as §1, §2, §3, §4, §5
Assay [5] deals with immobilized biotinylated peptide, N-terminal amino acid I (X-SDGMFTAGSLIGK(biotin)). The assay can be described thus: Phage ELISA, binding to immobilized peptide, N-terminal I. The procedure:
as §1, §2, §3, §4, §5

The test system of assay [6] is immobilized biotinylated peptide, N-terminal amino acid R (X-SDGMFTAGSLIGK(biotin)). Description: Phage ELISA, binding to immobilized peptide, N-terminal R. On the procedure:
as §1, §2, §3, §4, §5

For assay [7], the system named is immobilized biotinylated peptide, N-terminal amino acid K (X-SDGMFTAGSLIGK(biotin)). The assay can be described thus: Phage ELISA, binding to immobilized peptide, N-terminal K. On the procedure: as §1, §2, §3, §4, §5
Assay [8] relates to immobilized biotinylated peptide, N-terminal amino acid Y (X-SDGMFTAGSLIGK(biotin)). Description: Phage ELISA, binding to immobilized peptide, N-terminal Y. The procedure:
as §1, §2, §3, §4, §5

B1: ClpS WT: truncated wildtype E. coli ClpS polypeptide, 84 amino acids, SEQ ID NO: 1, displayed on phage (protein, listed as Escherichia coli)
chain: KPPSMYKVILVNDDYTPMEFVIDVLQKFFSYDVERATQLMLAVHYQGKAICGVFTAEVAETKVAMVNKYARENEHPLLCTLEKA
modifications: phage display
In the case of B1, the “phage ELISA binding signal” value in assay [1] (N-terminal D, phage 10X, sub Fab) was −0.29; in assay [1] (N-terminal amino acid D, Table 1), −0.29; in assay [2] (N-terminal G, phage 10X, sub Fab) it was −0.04; in assay [2] (N-terminal amino acid G, Table 1), −0.04; in assay [3] (N-terminal A, phage 10X, sub Fab), −0.29; in assay [3] (N-terminal amino acid A, Table 1), −0.29. For the same molecule, the “phage ELISA binding signal” value in assay [4] (N-terminal S, phage 10X, sub Fab) is listed as −0.01; in assay [4] (N-terminal amino acid S, Table 1), −0.01; in assay [5] (N-terminal I, phage 10X, sub Fab) it was −0.16; in assay [5] (N-terminal amino acid I, Table 1) it was −0.016; in assay [6] (N-terminal R, phage 10X, sub Fab) it was 0.13; in assay [6] (N-terminal amino acid R, Table 1), 0.13. In addition, the “phage ELISA binding signal” value in assay [7] (N-terminal K, phage 10X, sub Fab) was 0.05; in assay [7] (N-terminal amino acid K, Table 1), 0.05; in assay [8] (N-terminal Y, phage 10X, sub Fab), 1.08; in assay [8] (N-terminal amino acid Y, Table 1) it was 1.08.
